Results from US20250026849A1 (ARCELLX, published 2025).
Residue numbers refer to the chain shown, from its start.

T1: P26 (human, UniProt P02771 381-609, limits assumed)
T1 construct: also called AFP p26
T1 sequence: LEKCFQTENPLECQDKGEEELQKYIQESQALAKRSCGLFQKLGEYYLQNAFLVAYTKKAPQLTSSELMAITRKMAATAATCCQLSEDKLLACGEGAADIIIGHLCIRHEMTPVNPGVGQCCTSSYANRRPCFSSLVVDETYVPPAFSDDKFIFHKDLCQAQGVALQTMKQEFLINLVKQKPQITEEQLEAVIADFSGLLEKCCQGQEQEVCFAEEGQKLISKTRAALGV

B1: D domain SEQ ID NO: 948 (designed binder)
chain: MGSWMYFKSHLAWIKWELEALGGSEAELAFFEDNIAQFEYWLQLYKGKGNPEVEALRKEAAAIRDELQAYRHN
B2: D domain SEQ ID NO: 965 (designed binder)
chain: MGSWTHFKEDLAHIKDRLEALGGSEAELAAFELDIAWFEFMLQYYKGKGNPEVEALRKEAAAIRDELQAYRHN
B3: D domain SEQ ID NO: 960 (designed binder)
chain: B2 chain with T5I, H6I, E9T, H13R, D16N, R17Y, A30T, L33R, Y44I
B4: D domain SEQ ID NO: 972 (designed binder)
chain: B2 chain with T5S, H6I, E9Q, H13D, R17S, A30M, L33M, F40H, M41T
B5: D domain SEQ ID NO: 959 (designed binder)
chain: B2 chain with T5V, H6Y, E9H, D10R, H13E, R17Q, A30E, L33T, F40W
B6: D domain SEQ ID NO: 963 (designed binder)
chain: B2 chain with T5L, H6A, D16S, R17I, A30E, L33H, F40Y
B7: D domain SEQ ID NO: 958 (designed binder)
chain: MGSWVYFKDHLAEIKSQLEALGGSEAELALFEYDIAWFEFILQYYKGKGNPEVEALRKEAAAIRDELQAYRHN
B8: D domain SEQ ID NO: 964 (designed binder)
chain: B2 chain with T5F, H6V, H13G, D16F, R17I, A30M, L33T, F40Y
B9: D domain SEQ ID NO: 966 (designed binder)
chain: B2 chain with T5Y, H6Y, D10R, H13A, A30I, L33A
B10: D domain SEQ ID NO: 961 (designed binder)
chain: B2 chain with T5M, E9Q, H13E, D16G, R17Y, A30I, L33M, F40Y
B11: D domain SEQ ID NO: 954 (designed binder)
chain: MGSWVRFKTELAYIKESLEALGGSEAELAMFESEIAIFEHSLQTYKGKGNPEVEALRKEAAAIRDELQAYRHN
B12: D domain SEQ ID NO: 956 (designed binder)
chain: MGSWYWFKYELAEIKWHLEALGGSEAELAHFEHSIAVFESQLQQYKGKGNPEVEALRKEAAAIRDELQAYRHN
B13: D domain SEQ ID NO: 953 (designed binder)
chain: MGSWYIFKQELASIKLSLEALGGSEAELAHFEAEIAWFEWWLQWYKGKGNPEVEALRKEAAAIRDELQAYRHN
B14: D domain SEQ ID NO: 957 (designed binder)
chain: MGSWWVFKKTLAEIKWTLEALGGSEAELAYFEAEIAFFEFILQQYKGKGNPEVEALRKEAAAIRDELQAYRHN
B15: D domain SEQ ID NO: 951 (designed binder)
chain: MGSWYFFKSRLAYIKVYLEALGGSEAELAGFEWEIAHFEEWLQRYKGKGNPEVEALRKEAAAIRDELQAYRHN
B16: D domain SEQ ID NO: 952 (designed binder)
chain: B15 chain with F6I, R10E, Y13W, V16W, G30N, W33V, H37T, E40T, R44G
B17: D domain SEQ ID NO: 949 (designed binder)
chain: MGSWTLFKWDLAFIKWQLEALGGSEAELAWFEYEIAAFEDSLQNYKGKGNPEVEALRKEAAAIRDELQAYRHN
B18: D domain SEQ ID NO: 950 (designed binder)
chain: B17 chain with T5I, W9E, Y33T, E34T, A37N, D40S, S41D, N44K
B19: D domain SEQ ID NO: 947 (designed binder)
chain: MGSWVYFKAHLAFIKWELEALGGSEAELANFESTIAEFEKYLQVYKGKGNPEVEALRKEAAAIRDELQAYRHN
B20: D domain SEQ ID NO: 955 (designed binder)
chain: MGSWYLFKTELAAIKYRLEALGGSEAELASFEYEIAWFEHILQFYKGKGNPEVEALRKEAAAIRDELQAYRHN

These binders were tested against T1, P26 (assay: ELISA, format not described).
Parameters: unit not given here

| Binder | ELISA_avg |
| --- | --- |
| B1 | 19.8 |
| B2 | 30.4 |
| B3 | 16.7 |
| B4 | 16.6 |
| B5 | 11.1 |
| B6 | 18.6 |
| B7 | 22.1 |
| B8 | 14.2 |
| B9 | 31.5 |
| B10 | 18.9 |
| B11 | 20.5 |
| B12 | 21.5 |
| B13 | 19.4 |
| B14 | 18.6 |
| B15 | 30.1 |
| B16 | 29.6 |
| B17 | 12.1 |
| B18 | 23.3 |
| B19 | 20.8 |
| B20 | 20.1 |
